For data set [1], the target named is purified phage T4 heads (bacteriophage T4) (UniProt P13334). Nature of the data set: co-sedimentation.
The data set “crystal structure” concerns the molecule itself. As to the kind of experiment: crystal structure.

From paper PMC3746776 (Journal of molecular biology, 2013) come the findings set out here.

purified phage T4 heads (bacteriophage T4), sequence (P13334 whole entry, looked up): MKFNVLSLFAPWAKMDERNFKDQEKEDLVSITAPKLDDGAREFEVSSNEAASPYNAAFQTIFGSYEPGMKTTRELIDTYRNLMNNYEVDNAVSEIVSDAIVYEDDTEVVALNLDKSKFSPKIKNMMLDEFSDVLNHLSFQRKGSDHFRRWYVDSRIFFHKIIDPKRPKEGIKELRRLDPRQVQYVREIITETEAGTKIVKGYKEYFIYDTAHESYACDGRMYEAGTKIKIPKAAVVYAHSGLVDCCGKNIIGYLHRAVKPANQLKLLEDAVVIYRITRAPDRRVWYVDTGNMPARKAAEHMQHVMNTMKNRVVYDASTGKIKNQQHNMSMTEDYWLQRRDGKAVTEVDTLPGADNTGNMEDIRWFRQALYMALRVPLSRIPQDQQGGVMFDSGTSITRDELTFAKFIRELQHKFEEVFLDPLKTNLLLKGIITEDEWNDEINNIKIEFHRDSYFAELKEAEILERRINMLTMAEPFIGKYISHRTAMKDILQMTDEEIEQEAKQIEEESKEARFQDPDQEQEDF

B1: bacteriophage T4 gp14, purified (natural protein)
chain: MATYDKNLFAKLENRTGYSQTNETEILNPYVNFNHYKNSQILADVLVAESIQMRGVECYYVPREYVSPDLIFGEDLKNKFTKAWKFAAYLNSFEGYEGAKSFFSNFGMQVQDEVTLSINPNLFKHQVNGKEPKEGDLIYFPMDNSLFEINWVEPYDPFYQLGQNAIRKITAGKFIYSGEEINPVLQKNEGINIPEFSELELNAVRNLNGIHDINIDQYAEVDQINSEAKEYVEPYVVVNNRGKSFESSPFDNDFMD
B1 yielded a stoichiometry N (copies per head) in data set [1] of 6.

B2: gp15 C-terminal truncation mutant (residues 1-261) (domain or fragment, bacteriophage T4, UniProt P11112 1-261, looked up)
chain: MFGYFYNSSFRRYATLMGDLFSNIQIKRQLESGDKFIRVPITYASKEHFMMKLNKWTSINSQEDVAKVETILPRINLHLVDFSYNAPFKTNILNQNLLQKGATSVVSQYNPSPIKMIYELSIFTRYEDDMFQIVEQILPYFQPHFNTTMYEQFGNDIPFKRDIKIVLMSAAIDEAIDGDNLSRRRIEWSLTFEVNGWMYPPVDDAEGLIRTTYTDFHANTRDLPDGEGVFESVDSEVVPRDIDPEDWDGTVKQTFTSNVNR
Broadly, the stoichiometry N is a count of units in the complex or per binding partner. For B2, the “stoichiometry N” value in “crystal structure” came to 6.
